Laboratory results reported in publication PMC8225904.

Biological target: mAb X’ (E262K sequence variant containing mAb X)
Assay: ELISA; plates coated with serially diluted mAb, constant amount of C1q added, detected with biotinylated anti-C1q antibody and HRP-streptavidin; relative binding by parallel line analysis against mAb X

relative binding against mAb X: 0.95
Substance: C1q protein (complex)
